Laboratory results taken from patent publication US6709838 (Genentech, dated 2004).
Each block holds one binder with its values, some of them ahead of it.

Molecular target: T1, human Ptch-2 (SEQ ID NO:2), overexpressed on transfected human 293 embryonic kidney cells (human, UniProt Q9Y6C5 1-1203)
T1 construct: also called Patched-2; patched-2
T1 sequence: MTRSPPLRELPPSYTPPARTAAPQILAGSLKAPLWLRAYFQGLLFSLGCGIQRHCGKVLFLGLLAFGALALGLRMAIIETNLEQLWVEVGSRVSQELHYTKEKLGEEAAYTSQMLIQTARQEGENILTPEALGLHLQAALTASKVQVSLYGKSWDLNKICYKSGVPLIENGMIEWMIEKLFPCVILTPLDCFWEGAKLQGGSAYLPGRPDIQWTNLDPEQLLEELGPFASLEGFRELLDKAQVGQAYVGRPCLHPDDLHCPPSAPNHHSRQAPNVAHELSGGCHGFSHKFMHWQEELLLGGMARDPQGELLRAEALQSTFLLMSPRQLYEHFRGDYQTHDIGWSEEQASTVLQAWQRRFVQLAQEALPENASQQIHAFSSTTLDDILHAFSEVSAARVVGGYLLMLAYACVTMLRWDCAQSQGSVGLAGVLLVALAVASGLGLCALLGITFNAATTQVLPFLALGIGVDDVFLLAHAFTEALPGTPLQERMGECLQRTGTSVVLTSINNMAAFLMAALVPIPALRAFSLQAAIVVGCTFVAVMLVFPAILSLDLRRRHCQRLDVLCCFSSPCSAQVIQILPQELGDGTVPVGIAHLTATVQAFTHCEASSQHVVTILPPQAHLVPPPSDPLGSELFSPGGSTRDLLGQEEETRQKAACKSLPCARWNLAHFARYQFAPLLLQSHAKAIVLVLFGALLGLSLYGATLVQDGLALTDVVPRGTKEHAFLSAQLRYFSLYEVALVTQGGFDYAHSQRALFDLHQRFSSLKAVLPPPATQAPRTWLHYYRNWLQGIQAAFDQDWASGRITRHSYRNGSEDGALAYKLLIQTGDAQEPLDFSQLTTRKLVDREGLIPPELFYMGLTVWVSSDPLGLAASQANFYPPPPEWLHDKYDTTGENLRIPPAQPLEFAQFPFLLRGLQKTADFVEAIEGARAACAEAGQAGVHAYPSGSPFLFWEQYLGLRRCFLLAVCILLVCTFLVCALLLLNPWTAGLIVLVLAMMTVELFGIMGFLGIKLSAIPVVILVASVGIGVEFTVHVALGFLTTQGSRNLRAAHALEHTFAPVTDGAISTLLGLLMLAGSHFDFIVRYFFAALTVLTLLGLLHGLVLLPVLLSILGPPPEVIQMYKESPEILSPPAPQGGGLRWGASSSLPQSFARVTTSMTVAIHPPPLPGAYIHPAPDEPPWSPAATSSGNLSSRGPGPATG
Test: Scatchard analysis of 125I-Shh displacement curves, 293 cells expressing Ptch-2

Kd: 400 pM
B1: Ihh (SEQ ID NO:29) (ligand)
chain: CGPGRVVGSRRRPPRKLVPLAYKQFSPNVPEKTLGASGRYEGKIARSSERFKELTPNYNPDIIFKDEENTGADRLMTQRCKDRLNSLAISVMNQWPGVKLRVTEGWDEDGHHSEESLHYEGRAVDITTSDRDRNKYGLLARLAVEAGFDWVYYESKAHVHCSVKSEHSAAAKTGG
notes: also called Indian Hh

Kd: 600 pM
B2: Dhh (SEQ ID NO:13) (ligand)
chain: not shown
notes: also called Desert Hh; Desert hedgehog
